These results are taken from PMC13128273, “The interferon-stimulated gene product HERC5 inhibits human LINE-1 retrotransposition with an ISGylation-independent mechanism” (Nucleic Acids Research, 2026).

For the experiment, the target named is L1.3 ORF2p-3×FLAG (human, UniProt O00370 1-1275). The experiment in a line: co-IP; ORF2p-3×FLAG precipitated with anti-FLAG from lysate of HEK293T cells transfected with pTMF3 together with pCMV-3Tag-9, HERC5 or MOV10 vector; ORF1p-T7 detected by anti-T7 blot, band intensities given as ORF1p/ORF2p ratio relative to the control; pTMH3 as negative control. To be noted: partners not purified.
L1.3 ORF2p-3×FLAG, sequence (O00370 whole entry): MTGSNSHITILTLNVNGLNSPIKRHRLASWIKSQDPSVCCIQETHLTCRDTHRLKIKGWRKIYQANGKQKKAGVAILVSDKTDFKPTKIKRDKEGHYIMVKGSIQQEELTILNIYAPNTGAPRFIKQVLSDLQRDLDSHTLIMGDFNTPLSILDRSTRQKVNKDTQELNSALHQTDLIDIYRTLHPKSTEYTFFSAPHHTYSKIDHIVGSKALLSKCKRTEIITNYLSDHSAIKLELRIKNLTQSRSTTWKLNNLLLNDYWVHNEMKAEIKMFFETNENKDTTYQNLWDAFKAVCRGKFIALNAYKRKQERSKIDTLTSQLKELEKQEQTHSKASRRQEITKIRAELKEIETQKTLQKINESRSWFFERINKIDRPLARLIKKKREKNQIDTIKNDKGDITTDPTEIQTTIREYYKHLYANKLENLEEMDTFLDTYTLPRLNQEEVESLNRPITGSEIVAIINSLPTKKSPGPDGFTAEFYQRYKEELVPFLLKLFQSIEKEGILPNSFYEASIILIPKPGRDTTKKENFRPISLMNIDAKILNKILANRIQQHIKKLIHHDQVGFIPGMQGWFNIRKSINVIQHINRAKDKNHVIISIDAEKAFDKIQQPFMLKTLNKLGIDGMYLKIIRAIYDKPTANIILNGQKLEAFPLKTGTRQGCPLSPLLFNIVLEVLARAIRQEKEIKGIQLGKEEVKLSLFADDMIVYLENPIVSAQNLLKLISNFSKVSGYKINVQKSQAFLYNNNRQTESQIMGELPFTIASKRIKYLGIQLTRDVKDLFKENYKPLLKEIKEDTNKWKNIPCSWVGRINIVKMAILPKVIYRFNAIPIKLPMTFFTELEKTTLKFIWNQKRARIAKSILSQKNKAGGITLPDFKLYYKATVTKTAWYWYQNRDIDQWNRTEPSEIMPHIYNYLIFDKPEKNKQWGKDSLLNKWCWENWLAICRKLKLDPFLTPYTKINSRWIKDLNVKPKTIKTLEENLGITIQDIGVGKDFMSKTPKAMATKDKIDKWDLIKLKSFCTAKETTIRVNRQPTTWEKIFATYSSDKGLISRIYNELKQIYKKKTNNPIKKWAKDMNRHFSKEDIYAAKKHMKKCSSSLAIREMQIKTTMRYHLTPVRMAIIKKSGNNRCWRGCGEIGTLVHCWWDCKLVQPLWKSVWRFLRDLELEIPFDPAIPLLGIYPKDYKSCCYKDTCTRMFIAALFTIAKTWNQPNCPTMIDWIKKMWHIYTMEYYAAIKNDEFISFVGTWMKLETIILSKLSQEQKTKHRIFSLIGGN

B1: L1.3 ORF1p-T7 (natural protein)
chain: MGKKQNRKTGNSKTQSASPPPKERSSSPATEQSWMENDFDELREEGFRRSNYSELREDIQTKGKEVENFEKNLEECITRITNTEKCLKELMELKTKARELREECRSLRSRCDQLEERVSAMEDEMNEMKREGKFREKRIKRNEQSLQEIWDYVKRPNLRLIGVPESDVENGTKLENTLQDIIQENFPNLARQANVQIQEIQRTPQRYSSRRATPRHIIVRFTKVEMKEKMLRAAREKGRVTLKGKPIRLTADLSAETLQARREWGPIFNILKEKNFQPRISYPAKLSFISEGEIKYFIDKQMLRDFVTTRPALKELLKEALNMERNNRYQPLQNHAKM
notes: ORF1p of the human LINE-1 element L1.3, expressed from the full-length L1.3 in pTMF3 or pTMH3; residues counted from the first methionine of L1.3 ORF1p; From pTMH3 in the HERC5-3×FLAG IP and from pTMF3 in the ORF2p-3×FLAG IP; source: HEK293T, transfected, in lysate
Regarding B1, the “decrease of the ORF1p/ORF2p ratio in the ORF2p-3×FLAG IP with HERC5 overexpression, against the empty vector” value was around 60%.
